# Measured values: the Human Domainome abundance scans (Beltran et al. 2025)
# ± gives the uncertainty stated by the source.
# B1: Transcriptional regulator ERG, residues 117 to 197; numbered along this chain, P11308 (parent)
# chain: NMTTNERRVIVPADPTLWSTDHVRQWLEWAVKEYGLPDVNILLFQNIDGKELCKMTKDDFQRLTPSYNADILLSHLHYLRE
# Variants of: B1
# Assay: abundance fitness (aPCA) (normalised: wild type 0, dead -1); higher = more abundant; growth selection in yeast, the domain comes from the species named
# Settings: Homo sapiens
row,Variant,abundance fitness
1,NMTTNERRVIVPADPTLWSTDHVRQWLETAVKEYGLPDVNILLFQNIDGKELCKMTKDDFQRLTPSYNADILLSHLHYLRE,0.065 ± 0.055
2,NMTTNERRVIVPADPTLWSTDHVRQWLEVAVKEYGLPDVNILLFQNIDGKELCKMTKDDFQRLTPSYNADILLSHLHYLRE,-0.143 ± 0.045
3,NMTTNERRVIVPADPTLWSTDHVRQWLEYAVKEYGLPDVNILLFQNIDGKELCKMTKDDFQRLTPSYNADILLSHLHYLRE,0.006 ± 0.084
4,NMTTNERRVIVPADPTLWSTDHVRQWLEWNVKEYGLPDVNILLFQNIDGKELCKMTKDDFQRLTPSYNADILLSHLHYLRE,-0.217 ± 0.085
5,NMTTNERRVIVPADPTLWSTDHVRQWLEWWVKEYGLPDVNILLFQNIDGKELCKMTKDDFQRLTPSYNADILLSHLHYLRE,-0.324 ± 0.067
6,NMTTNERRVIVPADPTLWSTDHVRQWLEWTVKEYGLPDVNILLFQNIDGKELCKMTKDDFQRLTPSYNADILLSHLHYLRE,-0.051 ± 0.058
7,NMTTNERRVIVPADPTLWSTDHVRQWLEWQVKEYGLPDVNILLFQNIDGKELCKMTKDDFQRLTPSYNADILLSHLHYLRE,-0.018 ± 0.059
8,NMTTNERRVIVPADPTLWSTDHVRQWLEWYVKEYGLPDVNILLFQNIDGKELCKMTKDDFQRLTPSYNADILLSHLHYLRE,-0.655 ± 0.2
9,NMTTNERRVIVPADPTLWSTDHVRQWLEWVVKEYGLPDVNILLFQNIDGKELCKMTKDDFQRLTPSYNADILLSHLHYLRE,-0.095 ± 0.046
10,NMTTNERRVIVPADPTLWSTDHVRQWLEWPVKEYGLPDVNILLFQNIDGKELCKMTKDDFQRLTPSYNADILLSHLHYLRE,-0.956 ± 0.2
11,NMTTNERRVIVPADPTLWSTDHVRQWLEWFVKEYGLPDVNILLFQNIDGKELCKMTKDDFQRLTPSYNADILLSHLHYLRE,-0.403 ± 0.14
12,NMTTNERRVIVPADPTLWSTDHVRQWLEWSVKEYGLPDVNILLFQNIDGKELCKMTKDDFQRLTPSYNADILLSHLHYLRE,-0.103 ± 0.05
13,NMTTNERRVIVPADPTLWSTDHVRQWLEWCVKEYGLPDVNILLFQNIDGKELCKMTKDDFQRLTPSYNADILLSHLHYLRE,-0.117 ± 0.062
14,NMTTNERRVIVPADPTLWSTDHVRQWLEWGVKEYGLPDVNILLFQNIDGKELCKMTKDDFQRLTPSYNADILLSHLHYLRE,-0.181 ± 0.04
15,NMTTNERRVIVPADPTLWSTDHVRQWLEWLVKEYGLPDVNILLFQNIDGKELCKMTKDDFQRLTPSYNADILLSHLHYLRE,-0.103 ± 0.046
16,NMTTNERRVIVPADPTLWSTDHVRQWLEWIVKEYGLPDVNILLFQNIDGKELCKMTKDDFQRLTPSYNADILLSHLHYLRE,-0.164 ± 0.11
17,NMTTNERRVIVPADPTLWSTDHVRQWLEWKVKEYGLPDVNILLFQNIDGKELCKMTKDDFQRLTPSYNADILLSHLHYLRE,-0.105 ± 0.061

row,Variant,abundance fitness
1,NMTTNERRVIVPADPTLWSTDHVRQWLEWDVKEYGLPDVNILLFQNIDGKELCKMTKDDFQRLTPSYNADILLSHLHYLRE,-0.884 ± 0.22
2,NMTTNERRVIVPADPTLWSTDHVRQWLEWEVKEYGLPDVNILLFQNIDGKELCKMTKDDFQRLTPSYNADILLSHLHYLRE,-0.051 ± 0.054
3,NMTTNERRVIVPADPTLWSTDHVRQWLEWHVKEYGLPDVNILLFQNIDGKELCKMTKDDFQRLTPSYNADILLSHLHYLRE,-0.108 ± 0.092
4,NMTTNERRVIVPADPTLWSTDHVRQWLEWARKEYGLPDVNILLFQNIDGKELCKMTKDDFQRLTPSYNADILLSHLHYLRE,-0.054 ± 0.038
5,NMTTNERRVIVPADPTLWSTDHVRQWLEWANKEYGLPDVNILLFQNIDGKELCKMTKDDFQRLTPSYNADILLSHLHYLRE,-0.218 ± 0.11
6,NMTTNERRVIVPADPTLWSTDHVRQWLEWADKEYGLPDVNILLFQNIDGKELCKMTKDDFQRLTPSYNADILLSHLHYLRE,-0.498 ± 0.12
7,NMTTNERRVIVPADPTLWSTDHVRQWLEWATKEYGLPDVNILLFQNIDGKELCKMTKDDFQRLTPSYNADILLSHLHYLRE,0.001 ± 0.064
8,NMTTNERRVIVPADPTLWSTDHVRQWLEWASKEYGLPDVNILLFQNIDGKELCKMTKDDFQRLTPSYNADILLSHLHYLRE,-0.015 ± 0.045
9,NMTTNERRVIVPADPTLWSTDHVRQWLEWAKKEYGLPDVNILLFQNIDGKELCKMTKDDFQRLTPSYNADILLSHLHYLRE,0.06 ± 0.059
10,NMTTNERRVIVPADPTLWSTDHVRQWLEWAIKEYGLPDVNILLFQNIDGKELCKMTKDDFQRLTPSYNADILLSHLHYLRE,0.02 ± 0.08
11,NMTTNERRVIVPADPTLWSTDHVRQWLEWAEKEYGLPDVNILLFQNIDGKELCKMTKDDFQRLTPSYNADILLSHLHYLRE,-0.154 ± 0.051
12,NMTTNERRVIVPADPTLWSTDHVRQWLEWAGKEYGLPDVNILLFQNIDGKELCKMTKDDFQRLTPSYNADILLSHLHYLRE,-0.164 ± 0.037
13,NMTTNERRVIVPADPTLWSTDHVRQWLEWAMKEYGLPDVNILLFQNIDGKELCKMTKDDFQRLTPSYNADILLSHLHYLRE,-0.003 ± 0.071
14,NMTTNERRVIVPADPTLWSTDHVRQWLEWACKEYGLPDVNILLFQNIDGKELCKMTKDDFQRLTPSYNADILLSHLHYLRE,-0.111 ± 0.085
15,NMTTNERRVIVPADPTLWSTDHVRQWLEWAPKEYGLPDVNILLFQNIDGKELCKMTKDDFQRLTPSYNADILLSHLHYLRE,-0.649 ± 0.14
16,NMTTNERRVIVPADPTLWSTDHVRQWLEWAQKEYGLPDVNILLFQNIDGKELCKMTKDDFQRLTPSYNADILLSHLHYLRE,-0.086 ± 0.064
17,NMTTNERRVIVPADPTLWSTDHVRQWLEWAHKEYGLPDVNILLFQNIDGKELCKMTKDDFQRLTPSYNADILLSHLHYLRE,-0.14 ± 0.1
